T1: glutathione S-transferase (GST)-tagged BIK1 (BOTRYTIS-INDUCED KINASE 1) (Arabidopsis thaliana (Mouse-ear cress), UniProt O48814)
T1 chain: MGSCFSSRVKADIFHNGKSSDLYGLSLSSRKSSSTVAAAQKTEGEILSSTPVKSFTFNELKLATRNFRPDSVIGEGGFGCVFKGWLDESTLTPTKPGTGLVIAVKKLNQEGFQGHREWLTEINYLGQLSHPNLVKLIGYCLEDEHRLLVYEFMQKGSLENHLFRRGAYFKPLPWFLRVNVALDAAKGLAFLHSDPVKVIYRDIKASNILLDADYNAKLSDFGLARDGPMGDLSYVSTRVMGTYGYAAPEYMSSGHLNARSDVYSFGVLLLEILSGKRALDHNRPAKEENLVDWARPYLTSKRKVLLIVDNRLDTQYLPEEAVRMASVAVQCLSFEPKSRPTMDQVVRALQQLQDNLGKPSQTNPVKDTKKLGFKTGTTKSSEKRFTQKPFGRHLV

T2: six histidine-tagged DGK5β (…OL KINASE 5, constitutive full-length isoform) (Arabidopsis thaliana, UniProt Q9C5E5 1-509)
T2 construct: …OL KINASE 5, isoform DGK5β, Arabidopsis thaliana, AT2G20900; printed size 57.4 kDa; Ser506 lies in the CBD; also called HIS-DGK5β; source: E. coli BL21, purified (Ni-NTA agarose)
T2 sequence (looked up): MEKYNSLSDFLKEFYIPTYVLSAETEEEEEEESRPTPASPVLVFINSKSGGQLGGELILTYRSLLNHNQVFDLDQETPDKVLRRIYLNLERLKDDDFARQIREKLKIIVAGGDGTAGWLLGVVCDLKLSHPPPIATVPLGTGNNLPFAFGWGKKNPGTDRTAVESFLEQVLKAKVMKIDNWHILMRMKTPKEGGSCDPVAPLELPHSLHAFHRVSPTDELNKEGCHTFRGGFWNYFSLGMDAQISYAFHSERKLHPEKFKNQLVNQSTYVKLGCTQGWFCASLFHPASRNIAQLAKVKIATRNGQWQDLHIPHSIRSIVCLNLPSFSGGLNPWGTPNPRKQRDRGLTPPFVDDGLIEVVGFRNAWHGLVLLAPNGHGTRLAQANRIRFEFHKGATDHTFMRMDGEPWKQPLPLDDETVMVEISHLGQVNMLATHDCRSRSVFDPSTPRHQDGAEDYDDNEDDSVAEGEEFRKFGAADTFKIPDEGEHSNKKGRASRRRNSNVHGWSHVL


How the values were obtained:
[1] = molecular target: T1, glutathione S-transferase (GST)-tagged …; assay: GST pull-down
[2] = molecular target: T2, six histidine-tagged DGK5β (…OL KINASE …); assay: pull-down; GST-BIK1 immobilised on glutathione agarose beads, blocked with BSA, incubated with 2 μg HIS-DGK5β or HIS-DGK5α in 300 μl incubation buffer (20 mM Tris-HCl pH 7.5, 100 mM NaCl, 0.1 mM EDTA, 0.2% Triton X-100) at 4 °C for 1 h; washed with 300 mM NaCl buffer; immunoblot with α-HIS and α-GST; settings: both partners purified

binding result [1]	binding result [2]	Binder
binds		six histidine-tagged DGK5β (…OL KINASE 5, constitutive full-length isoform) (protein) MEKYNSLSDFLKEFYIPTYVLSAETEEEEEEESRPTPASPVLVFINSKSGGQLGGELILTYRSLLNHNQVFDLDQETPDKVLRRIYLNLERLKDDDFARQIREKLKIIVAGGDGTAGWLLGVVCDLKLSHPPPIATVPLGTGNNLPFAFGWGKKNPGTDRTAVESFLEQVLKAKVMKIDNWHILMRMKTPKEGGSCDPVAPLELPHSLHAFHRVSPTDELNKEGCHTFRGGFWNYFSLGMDAQISYAFHSERKLHPEKFKNQLVNQSTYVKLGCTQGWFCASLFHPASRNIAQLAKVKIATRNGQWQDLHIPHSIRSIVCLNLPSFSGGLNPWGTPNPRKQRDRGLTPPFVDDGLIEVVGFRNAWHGLVLLAPNGHGTRLAQANRIRFEFHKGATDHTFMRMDGEPWKQPLPLDDETVMVEISHLGQVNMLATHDCRSRSVFDPSTPRHQDGAEDYDDNEDDSVAEGEEFRKFGAADTFKIPDEGEHSNKKGRASRRRNSNVHGWSHVL
	binds	glutathione S-transferase (GST)-tagged BIK1 (BOTRYTIS-INDUCED KINASE 1) (enzyme, Arabidopsis thaliana, UniProt O48814 1-395, looked up, BOTRYTIS-INDUCED KINASE 1 (BIK1), receptor-like cytoplasmic kinase, Arabidopsis thaliana, AT2G39660; also called GST-BIK1; source: E. coli BL21, purified (glutathione agarose)) MGSCFSSRVKADIFHNGKSSDLYGLSLSSRKSSSTVAAAQKTEGEILSSTPVKSFTFNELKLATRNFRPDSVIGEGGFGCVFKGWLDESTLTPTKPGTGLVIAVKKLNQEGFQGHREWLTEINYLGQLSHPNLVKLIGYCLEDEHRLLVYEFMQKGSLENHLFRRGAYFKPLPWFLRVNVALDAAKGLAFLHSDPVKVIYRDIKASNILLDADYNAKLSDFGLARDGPMGDLSYVSTRVMGTYGYAAPEYMSSGHLNARSDVYSFGVLLLEILSGKRALDHNRPAKEENLVDWARPYLTSKRKVLLIVDNRLDTQYLPEEAVRMASVAVQCLSFEPKSRPTMDQVVRALQQLQDNLGKPSQTNPVKDTKKLGFKTGTTKSSEKRFTQKPFGRHLV

Reference: publication PMC11927175, “Global profiling of CPL3-mediated alternative splicing reveals regulatory mechanisms of DGK5 in plant immunity and phosphatidic acid homeostasis” (Genome Biology, 2025)
